The values below are quoted from earlier work in article PMC10770464.

In data set [1] the target is Plasminogen kringle 4 (Homo sapiens) (UniProt P00747).
Data set [2] deals with Tissue plasminogen activator (Homo sapiens) (UniProt P00750). Description: ELISA.
The target of data set [3] is Hepatocyte growth factor (Homo sapiens) (UniProt P14210). Briefly: ELISA.
Data set [4] addresses Plasminogen (Homo sapiens) (UniProt P00747).
Data set [5] concerns the target High mobility group box-1 (Homo sapiens) (UniProt P09429).
The target of data set [6] is Apolipoprotein A (Homo sapiens) (UniProt P08519).
UniProt P08519, sequence (P08519 20-2040): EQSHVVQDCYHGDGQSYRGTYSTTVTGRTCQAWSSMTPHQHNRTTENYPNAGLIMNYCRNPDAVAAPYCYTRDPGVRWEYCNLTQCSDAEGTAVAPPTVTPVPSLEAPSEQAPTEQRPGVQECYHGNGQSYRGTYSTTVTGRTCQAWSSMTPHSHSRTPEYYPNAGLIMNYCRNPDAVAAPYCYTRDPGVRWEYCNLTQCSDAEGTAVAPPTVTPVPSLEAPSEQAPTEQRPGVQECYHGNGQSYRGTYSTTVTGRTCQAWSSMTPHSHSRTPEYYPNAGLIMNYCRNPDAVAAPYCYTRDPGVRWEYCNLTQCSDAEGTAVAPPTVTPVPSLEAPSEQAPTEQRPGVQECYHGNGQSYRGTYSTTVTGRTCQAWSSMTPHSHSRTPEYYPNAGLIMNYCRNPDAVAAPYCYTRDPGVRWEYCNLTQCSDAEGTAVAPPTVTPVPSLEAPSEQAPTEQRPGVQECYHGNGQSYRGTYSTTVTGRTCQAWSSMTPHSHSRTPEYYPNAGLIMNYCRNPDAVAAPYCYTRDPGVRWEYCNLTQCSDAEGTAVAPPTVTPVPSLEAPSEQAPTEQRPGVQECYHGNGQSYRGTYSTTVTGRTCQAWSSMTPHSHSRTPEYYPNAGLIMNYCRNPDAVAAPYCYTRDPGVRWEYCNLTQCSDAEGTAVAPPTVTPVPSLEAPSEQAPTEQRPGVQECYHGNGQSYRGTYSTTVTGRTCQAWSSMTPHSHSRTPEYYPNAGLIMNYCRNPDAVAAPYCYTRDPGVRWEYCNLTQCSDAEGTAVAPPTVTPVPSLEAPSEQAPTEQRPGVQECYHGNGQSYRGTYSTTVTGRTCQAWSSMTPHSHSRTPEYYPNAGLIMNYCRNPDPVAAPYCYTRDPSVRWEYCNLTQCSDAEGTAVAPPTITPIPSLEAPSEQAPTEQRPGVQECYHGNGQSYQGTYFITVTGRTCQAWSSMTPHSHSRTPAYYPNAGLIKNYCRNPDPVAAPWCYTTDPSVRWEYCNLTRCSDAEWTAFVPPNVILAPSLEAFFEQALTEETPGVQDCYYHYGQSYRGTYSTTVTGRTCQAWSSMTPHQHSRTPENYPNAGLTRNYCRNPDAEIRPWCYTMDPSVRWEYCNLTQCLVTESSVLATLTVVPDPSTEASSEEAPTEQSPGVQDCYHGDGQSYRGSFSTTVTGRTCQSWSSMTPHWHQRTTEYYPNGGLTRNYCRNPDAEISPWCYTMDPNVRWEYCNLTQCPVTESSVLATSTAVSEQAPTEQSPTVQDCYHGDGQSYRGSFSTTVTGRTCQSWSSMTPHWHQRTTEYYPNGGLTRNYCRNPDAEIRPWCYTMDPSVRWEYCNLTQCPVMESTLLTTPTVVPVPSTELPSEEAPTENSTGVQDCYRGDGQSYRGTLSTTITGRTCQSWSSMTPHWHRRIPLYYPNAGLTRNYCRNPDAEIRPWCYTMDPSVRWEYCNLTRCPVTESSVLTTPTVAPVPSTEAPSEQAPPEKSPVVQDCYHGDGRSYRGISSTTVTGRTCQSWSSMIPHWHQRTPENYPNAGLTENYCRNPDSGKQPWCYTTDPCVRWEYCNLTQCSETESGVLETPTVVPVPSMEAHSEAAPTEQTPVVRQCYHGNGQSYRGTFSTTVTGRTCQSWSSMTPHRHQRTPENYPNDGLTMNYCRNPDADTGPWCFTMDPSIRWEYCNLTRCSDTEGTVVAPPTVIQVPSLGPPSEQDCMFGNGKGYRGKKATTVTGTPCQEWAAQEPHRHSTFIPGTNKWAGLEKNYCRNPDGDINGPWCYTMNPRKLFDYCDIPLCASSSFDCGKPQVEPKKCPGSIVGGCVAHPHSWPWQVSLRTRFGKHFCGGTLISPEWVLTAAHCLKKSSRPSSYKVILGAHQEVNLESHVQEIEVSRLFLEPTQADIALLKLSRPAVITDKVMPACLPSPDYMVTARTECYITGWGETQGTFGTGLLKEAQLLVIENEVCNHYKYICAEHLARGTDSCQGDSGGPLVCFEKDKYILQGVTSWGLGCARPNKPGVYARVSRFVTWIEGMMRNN

UniProt P14210, sequence (P14210 495-728): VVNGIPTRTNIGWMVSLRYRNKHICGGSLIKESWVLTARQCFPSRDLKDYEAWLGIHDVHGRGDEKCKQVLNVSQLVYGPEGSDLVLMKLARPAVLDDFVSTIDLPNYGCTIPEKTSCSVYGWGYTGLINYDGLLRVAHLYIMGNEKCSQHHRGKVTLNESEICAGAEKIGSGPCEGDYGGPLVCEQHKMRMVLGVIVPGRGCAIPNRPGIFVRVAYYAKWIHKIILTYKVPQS
UniProt P09429, sequence (P09429 whole entry): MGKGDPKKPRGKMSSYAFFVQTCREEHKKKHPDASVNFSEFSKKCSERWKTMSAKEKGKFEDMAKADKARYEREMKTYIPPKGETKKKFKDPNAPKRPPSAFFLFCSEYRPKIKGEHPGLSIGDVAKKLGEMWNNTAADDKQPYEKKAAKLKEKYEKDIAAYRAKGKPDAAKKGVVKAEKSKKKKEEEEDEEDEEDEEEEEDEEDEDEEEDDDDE
UniProt P00750, sequence (P00750 36-562): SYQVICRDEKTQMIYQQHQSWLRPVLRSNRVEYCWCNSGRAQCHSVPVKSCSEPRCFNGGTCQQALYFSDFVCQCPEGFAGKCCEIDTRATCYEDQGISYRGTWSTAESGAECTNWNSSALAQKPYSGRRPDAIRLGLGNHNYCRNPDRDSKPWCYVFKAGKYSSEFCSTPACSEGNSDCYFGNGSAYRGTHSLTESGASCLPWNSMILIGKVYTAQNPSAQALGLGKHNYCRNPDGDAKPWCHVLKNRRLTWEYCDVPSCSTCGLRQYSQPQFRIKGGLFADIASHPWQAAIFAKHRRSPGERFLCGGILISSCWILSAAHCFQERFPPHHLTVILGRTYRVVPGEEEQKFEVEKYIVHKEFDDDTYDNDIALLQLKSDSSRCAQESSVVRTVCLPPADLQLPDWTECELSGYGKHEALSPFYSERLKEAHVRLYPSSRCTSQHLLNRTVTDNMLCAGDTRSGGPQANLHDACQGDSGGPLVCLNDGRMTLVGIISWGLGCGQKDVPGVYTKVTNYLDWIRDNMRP

Turning to Tetranectin (from UniProt P05452), the Kd was 25000 nM in data set [1]; 290 nM in data set [2]; 490 nM in data set [3]; 400 nM in data set [4]; 2.05 nM in data set [5]; 13 nM in data set [6].
